For experiment [1], the target named is T1, pyro-Glu(3-40/42) fibrils (N-terminal pyroglutamate (pyro-Glu at Aβ position 3)).
T1 construct: Fibrillar aggregate of pyro-Glu(3-40/42)-Aβ
Description: SPR, fibrils.

A further experiment deals with T2, wild-type Aβ(1-40).
T2 construct: also called WT Aβ(1-40); Aβ (1-40) monomers
Description: SPR (Table 1).

The next experiment addresses T3, Aβ (1-40) fibrils.
T3 construct: Fibrillar aggregate of wild-type Aβ(1-40)
Description: SPR / Europium ELISA.

Experiment [2] concerns the target T4, pyro-Glu(3-40/42)-Aβ (N-terminal pyroglutamate (pyro-Glu at Aβ position 3)).
T4 construct: also called pyro-Glu(3-40/42) monomers; N-terminally modified pyro-glutamate Aβ
Description: SPR; restated as (4.2 nM) in the line below.

Experiment [3] addresses T4, pyro-Glu(3-40/42)-Aβ. Nature of the experiment: SPR or EU-ELISA (Table 1). Column 5 has no head of its own and is read as under the head 'KD for pyro-Glu (3-40/42)' printed at c4. Restated as (37.3 nM) in the line below. Differs from c4 (4.17E-9); second, unheaded column (c5) beside c4 under 'KD for pyro-Glu (3-40/42)'; probably the other peptide length (3-40 or 3-42), which the patent does not state. On the technique in general: ELISA stands for enzyme-linked immunosorbent assay.

T4 sequence (peptide, as listed by the source): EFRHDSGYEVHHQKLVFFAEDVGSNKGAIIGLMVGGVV
T3 sequence (peptide, as listed by the source): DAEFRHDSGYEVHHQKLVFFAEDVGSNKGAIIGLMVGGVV

B1: PGA 5 (antibody, IgG1, V domains shown)
VH: EVKLVESGGGLVQPGGSLRLSCVTSGFTFTENYMSWVRQPPGKALEWLGFIRNKANGYTTEYSASVKGRFTISRDNSQSILYLQMNTLRAEDSATYYCARDWDYGSSHAMDYWGQGTSVTVSS
VL: DILLTQSPAILSVSPGERVSFSCRASQNIGTSMHWFQQRTNGSPRLLIKYASESVSGIPSRFSGSGSGTDFTLSINSVESGDIADYYCQQSNSWPFTFGSGTKLEI
notes: also called 1F2 2E3; PGAS
As usually defined, the Kd is the concentration at which binding is half-saturated. With B1, the results for the Kd (in experiment [1]; in the experiment with pyro-Glu(3-40/42)-Aβ [2]; in the experiment with pyro-Glu(3-40/42)-Aβ [3]) were 4.53 nM, 4.17 nM and 37.3 nM, respectively. In addition, the binding result in the experiment with wild-type Aβ(1-40) and with Aβ (1-40) fibrils was “no binding” throughout.

Values taken from US20120045392A1 (CASE WESTERN RESERVE UNIVERSITY, published 2012).
